The results in this text go back to patent US20140087995A1 (published 2014).

Numbered stars: 1 amine (or outer) side, 2 acyl side, 3 side chain; on linkers, the order of the positions; unused ones are H or OH. Bridge positions count the residues as written; N and C are the ends. Side chains are listed from the residue outwards. Ends that are not written are not given here. * marks the point of attachment. C20 diacid = O=C(O)CCCCCCCCCCCCCCCCCCC(=O)*; γGlu = O=C(O)[C@H](CCC(=O)[*:2])N[*:1]

For test [1], the target named is T1, human amylin 3(a) receptor (human calcitonin receptor co-expressed with RAMP-3) (human, UniProt P30988 25-474; O60896 24-148, limits assumed).
T1 sequence (looked up) 1: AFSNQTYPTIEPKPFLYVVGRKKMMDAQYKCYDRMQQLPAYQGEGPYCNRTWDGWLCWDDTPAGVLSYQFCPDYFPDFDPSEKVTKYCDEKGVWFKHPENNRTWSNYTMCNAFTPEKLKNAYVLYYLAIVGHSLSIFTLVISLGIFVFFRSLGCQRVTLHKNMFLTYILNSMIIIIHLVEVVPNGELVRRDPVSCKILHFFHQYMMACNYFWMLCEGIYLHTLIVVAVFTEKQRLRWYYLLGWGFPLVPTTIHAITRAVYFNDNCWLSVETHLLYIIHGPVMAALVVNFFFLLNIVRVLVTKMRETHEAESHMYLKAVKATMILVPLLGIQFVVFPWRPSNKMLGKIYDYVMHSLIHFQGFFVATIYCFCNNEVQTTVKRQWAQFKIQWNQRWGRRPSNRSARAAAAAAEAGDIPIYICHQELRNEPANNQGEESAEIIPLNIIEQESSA
T1 sequence (looked up) 2: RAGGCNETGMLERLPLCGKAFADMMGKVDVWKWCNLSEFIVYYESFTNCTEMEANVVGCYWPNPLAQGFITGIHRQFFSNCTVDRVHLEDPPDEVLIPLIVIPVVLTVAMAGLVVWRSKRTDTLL
Briefly: cell-based or functional assay.

For test [2], the target named is T2, human calcitonin receptor (human, UniProt P30988 25-474).
T2 sequence (looked up): T1 sequence (looked up) 1
Nature of the test: cell-based or functional assay.

Test [3] concerns the target T1, human amylin 3(a) receptor (human …). Nature of the test: SPA competition binding, membranes of Amylin 3(a)/CRE-luc BHK cells, displacement of 125I-rat amylin (Assay (V)). As to the method: The binding assay was performed using scintillation proximity assay (SPA) beads (RPNQ0001) from PerkinElmer and cell membranes from the Amylin 3(a)/CRE-luc cells (as described in Assay (II)) were used. Membranes were prepared in the following way; the cells were rinsed with PBS and incubated with Versene for approximately 5 min before harvesting. The cells were flushed with PBS and the cell-suspension was centrifuged for 5 min at 1000 rpm. Cells were homogenized (ultrathurrax) in a buffer containing 20 mM Na-HEPES and 10 mM EDTA (pH 7.4) and centrifuged at 20.000 rpm for 15 min. The resulting pellet was resuspended, homogenized and centrifuged (20.000 rpm, 15 min) in a buffer containing 20 mM Na-HEPES and 0.1 mM EDTA (pH 7.4, buffer 2). The resulting pellet was resuspended in buffer 2 and protein concentration was measured (BCA protein Assay, Pierce). The homogenate was kept cold during the whole procedure. The membranes were kept at −80° C. until use. The assay was performed in a 384 well Optiplate (PerkinElmer) in a total volume of 40 ul. Membranes were mixed with SPA beads. Final concentration of membranes 35 ng/μL final and SPA beads was 0.05 mg/well. Test-compounds were dissolved in DMSO and further diluted in assay buffer (50 mM Hepes, pH 7.4, 1 mM CaCl2, 5 mM MgCl₂, 0.1% OA and 0.02% Tween20). […] The final mixture was incubated with shaking at 400 rpm for 120 min at 25° C. prior to centrifugation (1500 rpm, 10 min). Samples were analyzed on TopCounter™ (Packard). The IC₅₀ was calculated using (one site binding competition analysis) GraphPad Prism5 as a measure of receptor affinity.
(In a radioligand displacement assay an active substance lowers the binding of a labelled ligand.)

B1: N^ε1-[(4S)-4-carboxy-4-(19-carboxynonadecanoylamino)butanoyl]-[Glu14,Arg17,Pro21,Pro27,Pro34,Pro37]-h-amylin (peptide)
peptide: K([γGlu-C20 diacid])CNTATCATQRLAEFLRHSSPNFGAIPSSTNVGPNTP-NH2
modifications: disulfide 2-7; N-terminus assumed
SMILES: CC[C@H](C)[C@H](NC(=O)[C@H](C)NC(=O)CNC(=O)[C@H](Cc1ccccc1)NC(=O)[C@H](CC(N)=O)NC(=O)[C@@H]1CCCN1C(=O)[C@H](CO)NC(=O)[C@H](CO)NC(=O)[C@H](Cc1c[nH]cn1)NC(=O)[C@H](CCCNC(=N)N)NC(=O)[C@H](CC(C)C)NC(=O)[C@H](Cc1ccccc1)NC(=O)[C@H](CCC(=O)O)NC(=O)[C@H](C)NC(=O)[C@H](CC(C)C)NC(=O)[C@H](CCCNC(=N)N)NC(=O)[C@H](CCC(N)=O)NC(=O)[C@@H](NC(=O)[C@H](C)NC(=O)[C@@H]1CSSC[C@H](NC(=O)[C@@H](N)CCCCNC(=O)CC[C@H](NC(=O)CCCCCCCCCCCCCCCCCCC(=O)O)C(=O)O)C(=O)N[C@@H](CC(N)=O)C(=O)N[C@@H]([C@@H](C)O)C(=O)N[C@@H](C)C(=O)N[C@@H]([C@@H](C)O)C(=O)N1)[C@@H](C)O)C(=O)N1CCC[C@H]1C(=O)N[C@@H](CO)C(=O)N[C@@H](CO)C(=O)N[C@H](C(=O)N[C@@H](CC(N)=O)C(=O)N[C@H](C(=O)NCC(=O)N1CCC[C@H]1C(=O)N[C@@H](CC(N)=O)C(=O)N[C@H](C(=O)N1CCC[C@H]1C(N)=O)[C@@H](C)O)C(C)C)[C@@H](C)O
Turning to B1, the “hAmylin-R funct. EC50” value in test [1] was determined as 0.105 nM. In test [2], the “Ratio hCT/hAmylin funct.” value came out at 0.9 and the “hCTR funct. EC50” value was 0.09 nM. For the same molecule, in test [3], the 50% inhibitory concentration (IC50) was 0.214 nM.

B2: N^ε1-[(4S)-4-carboxy-4-(19-carboxynonadecanoylamino)butanoyl]-[His14,Arg17,Pro21,Pro27,Pro34,Pro37]-h-amylin (peptide)
peptide: K([γGlu-C20 diacid])CNTATCATQRLAHFLRHSSPNFGAIPSSTNVGPNTP-NH2
modifications: disulfide 2-7; N-terminus assumed
SMILES: CC[C@H](C)[C@H](NC(=O)[C@H](C)NC(=O)CNC(=O)[C@H](Cc1ccccc1)NC(=O)[C@H](CC(N)=O)NC(=O)[C@@H]1CCCN1C(=O)[C@H](CO)NC(=O)[C@H](CO)NC(=O)[C@H](Cc1c[nH]cn1)NC(=O)[C@H](CCCNC(=N)N)NC(=O)[C@H](CC(C)C)NC(=O)[C@H](Cc1ccccc1)NC(=O)[C@H](Cc1c[nH]cn1)NC(=O)[C@H](C)NC(=O)[C@H](CC(C)C)NC(=O)[C@H](CCCNC(=N)N)NC(=O)[C@H](CCC(N)=O)NC(=O)[C@@H](NC(=O)[C@H](C)NC(=O)[C@@H]1CSSC[C@H](NC(=O)[C@@H](N)CCCCNC(=O)CC[C@H](NC(=O)CCCCCCCCCCCCCCCCCCC(=O)O)C(=O)O)C(=O)N[C@@H](CC(N)=O)C(=O)N[C@@H]([C@@H](C)O)C(=O)N[C@@H](C)C(=O)N[C@@H]([C@@H](C)O)C(=O)N1)[C@@H](C)O)C(=O)N1CCC[C@H]1C(=O)N[C@@H](CO)C(=O)N[C@@H](CO)C(=O)N[C@H](C(=O)N[C@@H](CC(N)=O)C(=O)N[C@H](C(=O)NCC(=O)N1CCC[C@H]1C(=O)N[C@@H](CC(N)=O)C(=O)N[C@H](C(=O)N1CCC[C@H]1C(N)=O)[C@@H](C)O)C(C)C)[C@@H](C)O
For B2, in test [1], the “hAmylin-R funct. EC50” value was 0.052 nM. Besides, in test [2], the “Ratio hCT/hAmylin funct.” value came out at 0.8 and the “hCTR funct. EC50” value worked out at 0.04 nM. For the same molecule, the IC50 in test [3] is 0.131 nM.

B3: N^ε1-[(4S)-4-carboxy-4-[[(4S)-4-carboxy-4-(19-carboxynonadecanoylamino)butanoyl]amino]butanoyl]-[Glu14,Arg17,Pro21,Pro27,Pro34,Glu35]-h-amylin (peptide)
peptide: K([γGlu-γGlu-C20 diacid])CNTATCATQRLAEFLRHSSPNFGAIPSSTNVGPETY-NH2
modifications: disulfide 2-7; N-terminus assumed
SMILES: CC[C@H](C)[C@H](NC(=O)[C@H](C)NC(=O)CNC(=O)[C@H](Cc1ccccc1)NC(=O)[C@H](CC(N)=O)NC(=O)[C@@H]1CCCN1C(=O)[C@H](CO)NC(=O)[C@H](CO)NC(=O)[C@H](Cc1c[nH]cn1)NC(=O)[C@H](CCCNC(=N)N)NC(=O)[C@H](CC(C)C)NC(=O)[C@H](Cc1ccccc1)NC(=O)[C@H](CCC(=O)O)NC(=O)[C@H](C)NC(=O)[C@H](CC(C)C)NC(=O)[C@H](CCCNC(=N)N)NC(=O)[C@H](CCC(N)=O)NC(=O)[C@@H](NC(=O)[C@H](C)NC(=O)[C@@H]1CSSC[C@H](NC(=O)[C@@H](N)CCCCNC(=O)CC[C@H](NC(=O)CC[C@H](NC(=O)CCCCCCCCCCCCCCCCCCC(=O)O)C(=O)O)C(=O)O)C(=O)N[C@@H](CC(N)=O)C(=O)N[C@@H]([C@@H](C)O)C(=O)N[C@@H](C)C(=O)N[C@@H]([C@@H](C)O)C(=O)N1)[C@@H](C)O)C(=O)N1CCC[C@H]1C(=O)N[C@@H](CO)C(=O)N[C@@H](CO)C(=O)N[C@H](C(=O)N[C@@H](CC(N)=O)C(=O)N[C@H](C(=O)NCC(=O)N1CCC[C@H]1C(=O)N[C@@H](CCC(=O)O)C(=O)N[C@H](C(=O)N[C@@H](Cc1ccc(O)cc1)C(N)=O)[C@@H](C)O)C(C)C)[C@@H](C)O
Take B3: the “hAmylin-R funct. EC50” value in test [1] was 0.225 nM. For the same molecule, in test [2], the “Ratio hCT/hAmylin funct.” value is 10.5 and the “hCTR funct. EC50” value was determined as 2.36 nM. Also, in test [3], the half-maximal inhibitory concentration (IC50) turned out to be 0.121 nM.

B4: N^ε1-[(4S)-4-carboxy-4-[[(4S)-4-carboxy-4-(19-carboxynonadecanoylamino)butanoyl]amino]butanoyl]-[Glu14,Arg17,Pro21,Pro27,Arg34,Glu35]-h-amylin (peptide)
peptide: K([γGlu-γGlu-C20 diacid])CNTATCATQRLAEFLRHSSPNFGAIPSSTNVGRETY-NH2
modifications: disulfide 2-7; N-terminus assumed
SMILES: CC[C@H](C)[C@H](NC(=O)[C@H](C)NC(=O)CNC(=O)[C@H](Cc1ccccc1)NC(=O)[C@H](CC(N)=O)NC(=O)[C@@H]1CCCN1C(=O)[C@H](CO)NC(=O)[C@H](CO)NC(=O)[C@H](Cc1c[nH]cn1)NC(=O)[C@H](CCCNC(=N)N)NC(=O)[C@H](CC(C)C)NC(=O)[C@H](Cc1ccccc1)NC(=O)[C@H](CCC(=O)O)NC(=O)[C@H](C)NC(=O)[C@H](CC(C)C)NC(=O)[C@H](CCCNC(=N)N)NC(=O)[C@H](CCC(N)=O)NC(=O)[C@@H](NC(=O)[C@H](C)NC(=O)[C@@H]1CSSC[C@H](NC(=O)[C@@H](N)CCCCNC(=O)CC[C@H](NC(=O)CC[C@H](NC(=O)CCCCCCCCCCCCCCCCCCC(=O)O)C(=O)O)C(=O)O)C(=O)N[C@@H](CC(N)=O)C(=O)N[C@@H]([C@@H](C)O)C(=O)N[C@@H](C)C(=O)N[C@@H]([C@@H](C)O)C(=O)N1)[C@@H](C)O)C(=O)N1CCC[C@H]1C(=O)N[C@@H](CO)C(=O)N[C@@H](CO)C(=O)N[C@H](C(=O)N[C@@H](CC(N)=O)C(=O)N[C@H](C(=O)NCC(=O)N[C@@H](CCCNC(=N)N)C(=O)N[C@@H](CCC(=O)O)C(=O)N[C@H](C(=O)N[C@@H](Cc1ccc(O)cc1)C(N)=O)[C@@H](C)O)C(C)C)[C@@H](C)O
For the molecule B4, the “hAmylin-R funct. EC50” value in test [1] turned out to be 0.703 nM. In addition, in test [2], the “Ratio hCT/hAmylin funct.” value was 10.6 and the “hCTR funct. EC50” value was found to be 7.43 nM. Also, the 50% inhibitory concentration (IC50) in test [3] came to 0.957 nM.

By IC50 is commonly meant the concentration at which inhibition is half-maximal.
